Measurements taken from patent publication US10822723B2, “Fusion protein crystal comprising a moiety” (Agency for Science, Technology and Research, priority 2015, dated 2020).

Target: T1, PAK4cat (Homo sapiens, UniProt O96013)
T1 construct: PAK1 (1-545) and PAK4 (286-591), respectively; 6His (N); made in house; host or cells: Escherichia coli BL21-CodonPlus(DE3)
Experiment: In vitro kinase assay, phosphorylation of GST-Raf13 by PAK4cat
Type: biochemical
Conditions: in vitro, FIG. 1d
Procedure: Purified PAK1 or PAK4 (50 nM in 25-50 μl) were incubated with 10 μM GST-Raf1S338 peptide in 10 μM ATP (2 μCi of γ32P ATP) of kinase buffer (25 mM Hepes, pH 7.3, 0.1% Triton-X100, 50 mM KCl, 10 mM MgCl2, 1 mM DTT) at 30° C. for 20 min. Samples were analysed by SDS-polyacrylamide gel electrophoresis, or adsorption of the GST substrate mix onto PVDF membranes, followed by extensive washing to remove free γ32P-ATP. The synthetic peptides of 95% purity, as determined by HPLC and MS analyses (GenScript), were soluble in aqueous PBS. Stock solutions (10 mM) were quantified via calculated extinction coefficients and absorbance measurements at 280 nm and stored at −80° C. The diluted peptides were incubated at the indicated concentrations with the kinase on ice (10 min) before addition of γ32P ATP and subsequent incubation at 30° C. The synthetic peptide array (Jerini Biotools) was phosphorylated in situ as described previously.

T1 sequence (O96013 286-591): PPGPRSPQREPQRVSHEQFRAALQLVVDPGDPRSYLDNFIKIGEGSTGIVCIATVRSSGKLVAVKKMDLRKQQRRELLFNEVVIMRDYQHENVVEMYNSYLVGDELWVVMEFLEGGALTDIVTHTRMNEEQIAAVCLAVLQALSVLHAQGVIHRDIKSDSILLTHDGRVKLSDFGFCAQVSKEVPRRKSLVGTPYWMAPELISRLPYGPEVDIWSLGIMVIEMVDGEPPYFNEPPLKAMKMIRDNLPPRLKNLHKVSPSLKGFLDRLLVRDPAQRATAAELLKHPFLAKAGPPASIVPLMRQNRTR

- Ki: ~30 nM
B1: Inka1: human Inka1, endogenous protein inhibitor of PAK4 (protein)
chain: MDMHSARLDSFLSQLRWELLCGRDTGSPSMPGPLQPTSQTGPDVQPSHQLRASGALEEDSVCCVEEEEEEEEEAVVTEDRDAALGGPREHALDWDSGFSEVSGSTWREEELPVSQRPAPSAQPLRRQCLSVSGLPMPSRAPVASVPPVHHPRPKSTPDACLEHWQGLEAEDWTAALLNRGRSRQPLVLGDNCFADLVHNWMELPETGSEGGDGGGHRARARPPQFLLGLSEQLRRRLARARRTAMAGKRLSCPPRPEPELPADVSRFAALMSCRSRQPIICNDVS
modifications: left off: small tags and cut ends
